{"source": "patent US20180327512A1", "key": {"[1]": {"target": "human polyclonal IgG (Gammanorm) (human)", "assay": "SPR (Biacore), remaining IgG binding capacity after 96-100 cycles in 0.5 M NaOH, ratio to Zvar1 reference"}, "[2]": {"target": "human polyclonal IgG (Gammanorm) (human)", "assay": "SPR (Biacore), ligand on CM5 chip, 1 mg/ml human polyclonal IgG; remaining IgG binding signal after 96-100 10-min cycles in 0.5 M NaOH"}, "[3]": {"target": "human polyclonal IgG (Gammanorm) (human)", "assay": "column Qb10 after six 4 h cycles in 0.5 M NaOH relative to initial, ligand on agarose beads (ligand content 9.7 mg/ml)"}, "[4]": {"target": "human polyclonal IgG (Gammanorm) (human)", "assay": "column Qb10 retention after six 4 h cycles in 0.5 M NaOH, ratio to Zvar4 reference"}, "[5]": {"target": "human polyclonal IgG (Gammanorm) (human)", "assay": "column dynamic binding capacity at 10% breakthrough, ligand on agarose beads (ligand content 9.7 mg/ml), Gammanorm 2 mg/ml, 6 min residence time"}, "[6]": {"target": "human polyclonal IgG (Gammanorm) (human)", "assay": "column Qb10 after six 4 h cycles in 0.5 M NaOH, ligand on agarose beads (ligand content 9.7 mg/ml)"}, "[7]": {"target": "human polyclonal IgG (Gammanorm) (human)", "assay": "column Qb10 after six 4 h cycles in 0.5 M NaOH, ligand on agarose beads (ligand content 10.8 mg/ml)"}, "[8]": {"target": "human polyclonal IgG (Gammanorm) (human)", "assay": "column dynamic binding capacity at 10% breakthrough, ligand on agarose beads (ligand content 10.8 mg/ml), Gammanorm 2 mg/ml, 6 min residence time"}, "[9]": {"target": "human polyclonal IgG (Gammanorm) (human)", "assay": "column Qb10 after six 4 h cycles in 0.5 M NaOH relative to initial, ligand on agarose beads (ligand content 10.8 mg/ml)"}}}
{"substance": "Zvar(H18K, S33K, D37E, A42R, N43A, L44I, K50R, L51Y)1 (designed binder)", "values": [{"measurement": "Capacity relative to reference", "setting": "[1]", "result": 1.04}, {"measurement": "Capacity after 96-100 cycles", "setting": "[2]", "result": 48, "unit": "%"}]}
{"substance": "Zvar(N11K, H18K, S33K, D37E, A42R, N43A, L44I, K50R, L51Y)4 (designed binder)", "values": [{"measurement": "Remaining IgG capacity after six 4 h cycles (%)", "setting": "[3]", "result": 92, "unit": "%"}, {"measurement": "Capacity retention relative to ref. after 4 h cycles", "setting": "[4]", "result": 1.42}, {"measurement": "Initial IgG capacity Qb10", "setting": "[5]", "result": 56.3, "unit": "mg/mL"}, {"measurement": "Remaining IgG capacity after six 4 h cycles", "setting": "[6]", "result": 52, "unit": "mg/mL"}]}
{"substance": "Zvar(Q9A, N11K, H18K, D37E, A42R)4 (designed binder)", "values": [{"measurement": "Remaining IgG capacity after six 4 h cycles", "setting": "[7]", "result": 52.5, "unit": "mg/mL"}, {"measurement": "Initial IgG capacity Qb10", "setting": "[8]", "result": 56.9, "unit": "mg/mL"}, {"measurement": "Remaining IgG capacity after six 4 h cycles (%)", "setting": "[9]", "result": 92, "unit": "%"}, {"measurement": "Capacity retention relative to ref. after 4 h cycles", "setting": "[4]", "result": 1.21}]}
